Source: patent US10874712B2, “Methods, compounds and compositions for modulating blood brain barrier integrity and re-myelination” (University Health Network, priority 2015, dated 2020)

What was measured:
[1] = system: optic nerves of adult mice; assay: Optic nerve crush and regeneration model (GAP43 staining); format: in vivo, mouse; details: 1 μg/ml intraocularly at 3 and 10 days after injury; day 21; vs control proteins
Description: Optic nerve crush experiments were performed on animals and recovery assessed by staining for axonal fibres. The optic nerves of adult mice were crushed using fine self-closing forceps. sRGMc (1 μg/ml) or control solution was injected intraocularly at 3 and 10 days after injury. Animals were sacrificed at day 21 and optic nerves were dissected and fixed in 4% PFA. The optic nerves were sectioned longitudinally at 14 microns and stained with GAP43 antibody to stain newly regenerating axons.

[2] = system: EAE-induced mice; assay: In vivo BBB permeability, fibrinogen extravasation in spinal cord; design: species or system mouse; details: EAE day 18; treated every 3 days; vs vehicle
Description: To establish the role of RGMc on BBB permeability, 6-8 week old C57Bl/6 female mice induced with EAE and treated with sRGMc or vehicle (n=6 animals per group) were anesthetized 18 days post induction and trans-cardially perfused with 20 mL PBS followed by 20 mL 4% paraformaldehyde in PBS (PFA) (Electron Microscopy Sciences). Spinal cords were cryo-sectioned at 10 μm thickness and stored at −80° C. The sections were stained for Fibrinogen (Innovative Research); CD31 (Invitrogen); and DAPI (Sigma-Aldrich). All images were obtained using a BX61 confocal microscope (Olympus). CellSens software was used for quantification of cell area and pixel intensity. The area (number of pixels) and fluorescent intensity (mean pixel intensity) of the extravasation markers were measured using CellSens software (Olympus). The relative extent of fluorescent extravasation and BBB disruption was then calculated by multiplying the area with the fluorescent intensity.

[3] = system: b.end3 cells; assay: In vitro BBB permeability, Dextran-FITC extravasation in Boyden chamber; format: cell-based, mouse; details: b.end3 monolayer; 4 h pre-treatment (10 μg/mL sRGMc, 10 μg/mL C3 Transferase or 10 μM Y27632), then RGMa 18 h
Description: (A) Neogenin expression was analyzed on the membrane of b.end3 cells using immunohistochemical staining and by Western blot. (B) Crystal violet staining showing the b.end3 cell monolayer, (C) Representative diagram of the boyden chamber set up and (D) BBB permeability in b.end3 cells. Serum-starved cells were incubated for 4 h with RGMa (10 μg/ml), C3 Transferase (10 μg/mL) or Y27632 (10 μM) or sRGMc (10 μg/mL) and were then incubated with sRGMa (5 μg/mL) for 18 h followed by seeding of Dextran-FITC onto the upper chamber. Extravasation was measured over a period of 60 min as described in the Examples. n=3, performed in triplicates.
b.End3 endothelial cells were used to generate an in vitro model of the human EC barrier lining the choroid plexus. Briefly, b.end3 cells were plated on polyethylene-coated 0.4 μm pore size Boyden chambers (Corning) at a density of 2×10^5 cells per well in DMEM, and were allowed to grow for 72 h to reach confluency (verified using crystal violet staining). After 72 h, cells were serum starved for 6 h and pre-treated for 4 h with 10 μg/mL sRGMc, 10 μg/mL C3 Transferase or 10 μM Y27632. RGMa was then added to the wells for 18 h. The transwells were then transferred to a new plate containing 500 μl of HBSS and 200 μl 4-KDa Dextran-FITC (25 mg/ml; Sigma-Aldrich) was added to the upper chambers. Tracer diffusion across the EC monolayer was assessed in 30 min intervals for a period of 1.5 h. FITC signal, which represented the amount of extravasation through the monolayer was analyzed with using a microplate reader.

[4] = system: EAE-induced mice; assay: Immunohistochemistry of spinal cord for CD3, B220, CD11b infiltrates; format: in vivo, mouse; details: EAE day 18; vs vehicle
Description: Spinal cords were isolated and post-fixed with 4% PFA overnight at 4° C., washed 3× with PBS and soaked in 30% sucrose in PBS for 48 h. Tissues were then embedded in Optimal Cutting Temperature (OCT) compound. Frozen sections of spinal cords were cut at 10-30 μm with a cryostat, mounted on gelatinized slides, dried for 2 h and stored at −80° C. Sections were then re-hydrated in PBS for 5 min and permeabilized with PBST (0.3% Triton X-100 in PBS) for 5 min. The tissues were then blocked (PBS, 0.3% Triton X-100, 3% FBS) for 1 h at room temperature and incubated with the following primary antibodies overnight at 4° C. in a humidified chamber: anti-CD3 (145-2C11, BioLegend); CD11b (M1/70, BioLegend); B220 (RA3-6B2, BioLegend), DAPI (MMS-435P, Sigma), Fibrinogen (D9542, Innovative Research).

[5] = system: mouse cerebellar organotypic cultures; assay: Remyelination in lysolecithin-demyelinated cerebellar organotypic cultures (MBP staining); format: cell-based; details: sRGMc 500 ng/ml for 14 days after lysolecithin
Description: To assess the ability of sRGMc to function as a remyelinating agent, its function in in vitro cerebellar explant cultures was investigated. Briefly, cultures were demyelinated using lysolecithin, a detergent, and then cultured in the presence of sRGMc for 14 days.
Myelination-demyelination-remyelination studies were performed in mouse cerebellar organotypic cultures. The cerebella of postnatal 6 day old pups were dissected and sectioned at 400 μm thickness using vibratome. Cerebellar sections were then plated on insert plates (Corning, Wilkes Barre, Pa.) and allowed to attach. Media was replaced every 2-3 days and cultures were maintained for 7 days. To induce demyelination, 0.5 mg/ml lysolecithin (1′-monoacyl-1-3-glycerylphosphorylcholine; Sigma) was added to the culture medium for 18 hr, after which it was removed and replaced with fresh medium containing sRGMc (500 ng/ml) or control protein and the cultures maintained for 14 more days. Media was replaced every 2-3 days. Demyelination-remyelination was assessed by staining explants with myelin basic protein antibody MBP (Cell Signaling).

B1: sRGMc: truncated form of RGMc with the GPI anchor sequence removed, released as a soluble protein (SEQ ID NOs: 1 and 3) (protein, listed as Homo sapiens)
chain: CKILRCNAEYVSSTLSLRGGGSSGALRGGGGGGRGGGVGSGGLCRALRSYALCTRRTARTCRGDLAFHSAVHGIEDLMIQHNCSRQGPTAPPPPRGPALPGAGSGLPAPDPCDYEGRFSRLHGRPPGFLHCASFGDPHVRSFHHHFHTCRVQGAWPLLDNDFLFVQATSSPMALGANATATRKLTIIFKNMQECIDQKVYQAEVDNLPVAFEDGSINGGDRPGGSSLSIQTANPGNHVEIQAAYIGTTIIIRQTAGQLSFSIKVAEDVAMAFSAEQDLQLCVGGCPPSQRLSRSERNRRGAITIDTARRLCKEGLPVEDAYFHSCVFDVLISGDPNFTVAAQAALEDARAFLPDLEKLH
regeneration of axonal fibres at the site of injury (GAP43) [1]: promote the regeneration of axonal fibres | fibrinogen extravasation [2]: significant decrease | extravasation of Dextran-FITC in sRGMa-treated cells [3]: reproduced the RhoA/RhoK inhibitor effect | infiltration of B220+ cells into cervical spinal cords [4]: significantly reduced | infiltration of CD3+ cells into cervical spinal cords [4]: significantly reduced | infiltration of Cd11b+ cells into cervical spinal cords [4]: significantly reduced | remyelination (myelin basic protein staining) [5]: promote remyelination
